Biological target: HER2 on human tumor cells (human) (UniProt P04626)
Assay: Her2 receptor occupancy on SK-BR-3 cells, FACS, competitor biotin-labeled parental anti-HER2 antibody

Work on Magrolimab (antibody) yielded a Max RO % of 0%.
